From the supplement of paper PMC12636428

Test system: Saccharomyces cerevisiae
Test: transcriptional activation domain activity (GFP:mCherry ratio, weighted mean of sorted bins, harmonized to initial dataset scale) (arbitrary fluorescence ratio units); higher = stronger transcriptional activation
Settings: beta-estradiol 1 µM; induction time 4 h
How it was run: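 The listed activation activity is a read-weighted mean of bin median fluorescence, averaged across barcodes and linearly mapped onto the initial dataset scale. Barcoded tiles, fused to an estradiol-inducible synthetic transcription factor, were integrated at URA3 in yeast diploids bearing a GFP reporter. Cells were held 4 hours at 30 °C in SC with 1 uM beta-estradiol, sorted into 8 GFP:mCherry bins, and sequenced, and tiles with fewer than 50 reads were excluded.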

| Sequence | transcriptional activation domain activity |
| --- | --- |
| QKKLLILCGFGWLADNVSIYHLLSISCWFYYKGTQLYSLFLIRCGYRLWLLFF | 70700 |
| QKLSWIDNSGFRWLIMPFIWSSFFIQWLAVFFEICIVILQLRVIAWWLGWLVC | 60700 |
| QKMQKSGGFVNINVFGFVFIIAVSCVVVTLDITLLKFLIFISEFQRLTHLSAR | 45400 |
| QKPEAAANATAVGEKKEVEEELKKVVEAKPEGKTEAGPAKEEGKAAEAAPAKA | 52800 |
| QKRGLETHHRRSGFWAALRRAEKGKSWVFLFFFFLFFPFFSFFYFFLLFLFLF | 21800 |
| QKVGSDKTPGGGSSQYIWLIVYLSISLLSSVLVATTMLLIYTGSLRASVILHE | 53500 |
| QLAIELSAFADDSFIFPDEDKPSNNNNNSNNGNDDHSNHDVLHEDPSTNNRQR | 16300 |
| QLALFRWCAKMCGDVLSARDLVILGCRILLRCLRSYAWDFLFGHLLFALRLVR | 72000 |
| QLECFGSTSLGWKSLKLVLRAHALCLLAAAVKEGLFEYSYVRLLADLCLSLEC | 56200 |
| QLEGDADLFLVPNFYVLRRISHLATTTLLRQLEAFSIRTPVFGVLLWKSLVAI | 49100 |
| QLFTFLLQTYRMKYLVQRVSPRTIRQINDVRLRHLSYKLRQRLIWFADIMRSY | 58900 |
| QLKVVRITFSGLGAVALTICPCTPVVEQLLQAVHLKVLYLVKELFVCIPPNTS | 48500 |
| QLLLSRLVTWLIRLVCQDEGPLVLKKMCSTLATYFLRPTASWPQCIRHLICSF | 38800 |
| QLLLVHEGCVMDRLAIAGFEGAALARALWFASFLKGVVRQDRIMEGMYYLLAP | 26300 |
| QLMESVSELDLPPLTLDEPPQAIKFNLNLFNNDPSGQQQQQQQQQQNSTSSTI | 29000 |
| QLMTGPVLLDREVQTGHSGSLLVLVMSCWSLECFERRQALRKTVLALLGPLRE | 70700 |
| QLNLVNHFYQFSLHFFLDIFDYILHHNPNLKGVTDYPTRRAILLNDLFLVVYR | 58200 |
| QLNLVNHFYQFSLRFFLDIFDYILHHNPNLKGVTDYSRRRAILLNDLFLVVYQ | 55500 |
| QLQCIPIFGNFVVLILCLKYIYSCNHFGSVTSHHTFHMLAVVLSTFFISLIPV | 43100 |
| QLQPFSESQSQNKFDYDMFFRDSSKEGNNLFGEFLEDDDDDKKAANMSDDESS | 43800 |
| QLRLFQFDRLVEELLPLVHTHFIRKGIKSSMFASQWFMTLFSYRFPLSLVYRV | 66200 |
| QLTAQQLIENAIESGVVDLETLDLPPFLSLDGLPPASSSAAVAASEQIDICPS | 133000 |
| QLTRGNWSDLFFLFIFLWIVLFFFLLHWSWAWLLVFVLSICSSGLLGAILFFF | 27200 |
| QLVIAVLLLHASAMFTKRVEIPQLKLETAGKLFPCVFVNIVGLVFNTLCLRDV | 43300 |
| QLYCILNPPHLFVFPPKEISSVLFLVGVVHYVLYGLYYMLLLYNLFRFGLLTY | 45700 |
| QLYSNNFQQSYPNGMVPGYYPKMPYNPMGGDPLLDQAFYGADDFFFPPEGCDN | 77800 |
| QMLNPLEKILLSLASIVLSSRVSRNLFVLYALGLHFIVLFTLYSVVYVFIFCS | 37500 |
| QNAIELTLLCITLIASDTLLLLRVSALCADRSSGVWGISYFYIIRRLLWGVYF | 68700 |
| QNESERLGPPKKKRRRQALSCTECKRRKIKCDRTHPCGPCARRSEPEKCQWHV | 27600 |
| QNLFGYLERSLNRSTKLRATGMLKEGMVRIFIQKIEGSPFEVTMQFARKFFTA | 35900 |
